In patent publication US20250262210A1 (TRUSTEES OF COLUMBIA UNIVERSITY IN THE CITY OF NEW YORK, published 2025):

How the values were obtained:
Assay in all cases: IP/MS, LZTR1 wild type-FLAG, U87
RPAP1 = target: T1, RPAP1 (human, UniProt Q9BWH6 1-1393, limits assumed)
T1 sequence (looked up): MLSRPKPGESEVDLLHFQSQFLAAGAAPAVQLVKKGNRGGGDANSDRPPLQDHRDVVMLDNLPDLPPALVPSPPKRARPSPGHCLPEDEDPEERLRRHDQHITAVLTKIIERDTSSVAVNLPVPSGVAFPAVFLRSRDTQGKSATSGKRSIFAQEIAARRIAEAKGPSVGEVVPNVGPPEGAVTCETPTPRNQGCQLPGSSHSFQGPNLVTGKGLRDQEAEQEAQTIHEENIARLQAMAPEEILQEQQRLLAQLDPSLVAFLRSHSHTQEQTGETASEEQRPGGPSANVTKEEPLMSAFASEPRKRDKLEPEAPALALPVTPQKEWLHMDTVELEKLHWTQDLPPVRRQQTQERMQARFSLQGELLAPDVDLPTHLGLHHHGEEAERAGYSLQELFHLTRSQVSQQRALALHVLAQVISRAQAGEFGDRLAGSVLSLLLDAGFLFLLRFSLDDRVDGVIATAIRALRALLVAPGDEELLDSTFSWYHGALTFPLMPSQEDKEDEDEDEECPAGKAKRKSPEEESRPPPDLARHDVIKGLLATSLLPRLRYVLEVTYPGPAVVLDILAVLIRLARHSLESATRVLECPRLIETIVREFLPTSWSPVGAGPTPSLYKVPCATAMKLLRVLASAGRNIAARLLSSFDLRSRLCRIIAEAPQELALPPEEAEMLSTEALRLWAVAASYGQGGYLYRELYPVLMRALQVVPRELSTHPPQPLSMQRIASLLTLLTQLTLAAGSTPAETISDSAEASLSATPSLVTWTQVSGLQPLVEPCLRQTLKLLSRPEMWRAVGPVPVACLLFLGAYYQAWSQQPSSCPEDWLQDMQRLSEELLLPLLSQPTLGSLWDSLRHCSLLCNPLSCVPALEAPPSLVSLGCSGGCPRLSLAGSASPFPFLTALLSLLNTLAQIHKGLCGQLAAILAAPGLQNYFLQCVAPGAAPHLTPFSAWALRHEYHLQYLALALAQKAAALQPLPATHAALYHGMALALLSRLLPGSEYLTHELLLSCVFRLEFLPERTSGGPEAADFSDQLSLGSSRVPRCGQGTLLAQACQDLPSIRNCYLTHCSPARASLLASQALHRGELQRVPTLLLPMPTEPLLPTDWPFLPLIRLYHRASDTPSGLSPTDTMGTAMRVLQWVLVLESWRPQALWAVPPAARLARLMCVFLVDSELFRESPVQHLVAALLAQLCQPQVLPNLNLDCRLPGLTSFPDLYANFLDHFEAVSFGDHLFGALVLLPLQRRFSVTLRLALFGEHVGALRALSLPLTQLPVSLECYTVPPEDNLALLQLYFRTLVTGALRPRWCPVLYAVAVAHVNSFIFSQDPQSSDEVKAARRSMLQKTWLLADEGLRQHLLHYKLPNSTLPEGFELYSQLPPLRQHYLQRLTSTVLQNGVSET
In short: (§1)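 Extracted peptides in 3% acetonitrile/0.1% formic acid ran on a 50 cm C18 column into an Orbitrap Fusion, with MaxQuant identification and spectral counting.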

PEAK1 = PEAK1 (human, UniProt Q9H792 1-1746)
In short: as §1

VPS13A = VPS13A (human, UniProt Q96RL7 1-3174, limits assumed)
In short: as §1

Measured: binding result

Chain of VPS13A (Q96RL7 whole entry): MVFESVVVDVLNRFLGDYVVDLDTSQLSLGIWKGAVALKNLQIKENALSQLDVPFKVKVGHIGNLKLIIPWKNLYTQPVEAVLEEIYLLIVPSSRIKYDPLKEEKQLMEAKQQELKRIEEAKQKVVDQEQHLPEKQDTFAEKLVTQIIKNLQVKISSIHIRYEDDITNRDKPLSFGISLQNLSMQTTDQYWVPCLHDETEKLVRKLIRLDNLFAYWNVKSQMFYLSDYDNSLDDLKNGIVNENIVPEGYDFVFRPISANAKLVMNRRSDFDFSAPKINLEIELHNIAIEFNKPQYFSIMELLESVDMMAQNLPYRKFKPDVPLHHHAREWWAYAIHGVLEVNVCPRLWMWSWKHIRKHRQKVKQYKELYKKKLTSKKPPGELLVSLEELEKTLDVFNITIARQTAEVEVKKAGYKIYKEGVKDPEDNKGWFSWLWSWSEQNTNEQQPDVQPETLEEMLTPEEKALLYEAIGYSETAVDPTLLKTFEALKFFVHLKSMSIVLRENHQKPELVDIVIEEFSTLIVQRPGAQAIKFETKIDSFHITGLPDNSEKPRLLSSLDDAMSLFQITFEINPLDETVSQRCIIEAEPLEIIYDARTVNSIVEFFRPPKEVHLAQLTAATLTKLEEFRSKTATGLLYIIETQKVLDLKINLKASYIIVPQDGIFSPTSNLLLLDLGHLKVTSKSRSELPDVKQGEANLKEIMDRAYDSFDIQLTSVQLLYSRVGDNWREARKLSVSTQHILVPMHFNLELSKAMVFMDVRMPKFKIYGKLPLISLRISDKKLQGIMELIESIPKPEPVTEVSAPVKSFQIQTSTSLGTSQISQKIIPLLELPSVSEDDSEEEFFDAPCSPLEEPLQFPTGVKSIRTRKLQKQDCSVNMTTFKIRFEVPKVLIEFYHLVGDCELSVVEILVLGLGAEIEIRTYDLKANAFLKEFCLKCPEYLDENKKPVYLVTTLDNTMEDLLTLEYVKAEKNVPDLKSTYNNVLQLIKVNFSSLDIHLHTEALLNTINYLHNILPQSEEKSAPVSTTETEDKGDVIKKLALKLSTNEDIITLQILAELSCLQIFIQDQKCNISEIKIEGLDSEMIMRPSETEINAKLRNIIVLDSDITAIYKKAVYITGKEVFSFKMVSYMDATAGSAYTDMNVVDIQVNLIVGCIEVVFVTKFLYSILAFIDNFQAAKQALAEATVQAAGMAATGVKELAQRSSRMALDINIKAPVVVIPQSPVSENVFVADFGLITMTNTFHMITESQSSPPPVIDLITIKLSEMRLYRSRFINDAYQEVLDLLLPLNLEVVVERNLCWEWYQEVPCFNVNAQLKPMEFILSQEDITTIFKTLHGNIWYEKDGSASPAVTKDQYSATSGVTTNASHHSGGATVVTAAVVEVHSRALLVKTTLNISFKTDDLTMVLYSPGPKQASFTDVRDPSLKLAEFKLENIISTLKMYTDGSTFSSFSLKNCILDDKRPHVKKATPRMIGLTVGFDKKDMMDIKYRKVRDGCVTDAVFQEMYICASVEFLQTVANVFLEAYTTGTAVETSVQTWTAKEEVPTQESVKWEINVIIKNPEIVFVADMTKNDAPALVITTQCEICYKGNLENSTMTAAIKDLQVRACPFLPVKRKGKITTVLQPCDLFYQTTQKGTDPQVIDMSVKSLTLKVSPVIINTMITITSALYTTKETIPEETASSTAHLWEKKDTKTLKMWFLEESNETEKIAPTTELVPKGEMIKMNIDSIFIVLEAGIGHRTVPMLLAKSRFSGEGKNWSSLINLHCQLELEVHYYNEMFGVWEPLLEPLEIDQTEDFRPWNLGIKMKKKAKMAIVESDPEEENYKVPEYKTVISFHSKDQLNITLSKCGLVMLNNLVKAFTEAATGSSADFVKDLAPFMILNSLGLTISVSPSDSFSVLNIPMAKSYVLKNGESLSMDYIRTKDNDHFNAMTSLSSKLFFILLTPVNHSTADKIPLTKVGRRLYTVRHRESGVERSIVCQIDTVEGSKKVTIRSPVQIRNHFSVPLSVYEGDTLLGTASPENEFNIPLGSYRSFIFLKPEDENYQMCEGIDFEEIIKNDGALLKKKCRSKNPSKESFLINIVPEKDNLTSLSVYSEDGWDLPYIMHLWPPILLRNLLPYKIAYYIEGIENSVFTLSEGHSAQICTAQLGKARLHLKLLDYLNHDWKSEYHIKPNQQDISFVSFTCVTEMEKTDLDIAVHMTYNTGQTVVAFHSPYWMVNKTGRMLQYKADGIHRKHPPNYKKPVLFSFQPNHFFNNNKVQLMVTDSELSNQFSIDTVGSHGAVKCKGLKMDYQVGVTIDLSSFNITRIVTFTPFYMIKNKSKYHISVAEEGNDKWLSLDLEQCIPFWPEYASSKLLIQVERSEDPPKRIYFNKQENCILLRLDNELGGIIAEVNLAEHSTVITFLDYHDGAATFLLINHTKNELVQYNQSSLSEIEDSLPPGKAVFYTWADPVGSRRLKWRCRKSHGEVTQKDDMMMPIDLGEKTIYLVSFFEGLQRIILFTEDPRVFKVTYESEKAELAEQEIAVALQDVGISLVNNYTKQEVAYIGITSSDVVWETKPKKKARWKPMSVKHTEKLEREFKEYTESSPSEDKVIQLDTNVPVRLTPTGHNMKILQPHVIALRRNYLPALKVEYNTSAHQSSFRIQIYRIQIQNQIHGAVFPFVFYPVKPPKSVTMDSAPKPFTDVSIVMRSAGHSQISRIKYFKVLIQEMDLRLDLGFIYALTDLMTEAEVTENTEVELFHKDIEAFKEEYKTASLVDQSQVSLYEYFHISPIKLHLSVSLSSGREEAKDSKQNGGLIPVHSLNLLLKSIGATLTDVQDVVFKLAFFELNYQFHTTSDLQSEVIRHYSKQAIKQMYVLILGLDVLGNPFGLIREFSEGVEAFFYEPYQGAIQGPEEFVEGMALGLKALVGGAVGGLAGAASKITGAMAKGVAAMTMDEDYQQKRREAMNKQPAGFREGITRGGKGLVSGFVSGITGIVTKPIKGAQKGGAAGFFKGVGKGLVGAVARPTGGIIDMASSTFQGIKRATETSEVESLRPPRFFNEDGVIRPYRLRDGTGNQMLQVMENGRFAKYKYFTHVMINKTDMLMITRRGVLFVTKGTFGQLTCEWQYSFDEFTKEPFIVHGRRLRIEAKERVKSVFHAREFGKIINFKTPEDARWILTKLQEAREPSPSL
Chain of PEAK1 (Q9H792 whole entry): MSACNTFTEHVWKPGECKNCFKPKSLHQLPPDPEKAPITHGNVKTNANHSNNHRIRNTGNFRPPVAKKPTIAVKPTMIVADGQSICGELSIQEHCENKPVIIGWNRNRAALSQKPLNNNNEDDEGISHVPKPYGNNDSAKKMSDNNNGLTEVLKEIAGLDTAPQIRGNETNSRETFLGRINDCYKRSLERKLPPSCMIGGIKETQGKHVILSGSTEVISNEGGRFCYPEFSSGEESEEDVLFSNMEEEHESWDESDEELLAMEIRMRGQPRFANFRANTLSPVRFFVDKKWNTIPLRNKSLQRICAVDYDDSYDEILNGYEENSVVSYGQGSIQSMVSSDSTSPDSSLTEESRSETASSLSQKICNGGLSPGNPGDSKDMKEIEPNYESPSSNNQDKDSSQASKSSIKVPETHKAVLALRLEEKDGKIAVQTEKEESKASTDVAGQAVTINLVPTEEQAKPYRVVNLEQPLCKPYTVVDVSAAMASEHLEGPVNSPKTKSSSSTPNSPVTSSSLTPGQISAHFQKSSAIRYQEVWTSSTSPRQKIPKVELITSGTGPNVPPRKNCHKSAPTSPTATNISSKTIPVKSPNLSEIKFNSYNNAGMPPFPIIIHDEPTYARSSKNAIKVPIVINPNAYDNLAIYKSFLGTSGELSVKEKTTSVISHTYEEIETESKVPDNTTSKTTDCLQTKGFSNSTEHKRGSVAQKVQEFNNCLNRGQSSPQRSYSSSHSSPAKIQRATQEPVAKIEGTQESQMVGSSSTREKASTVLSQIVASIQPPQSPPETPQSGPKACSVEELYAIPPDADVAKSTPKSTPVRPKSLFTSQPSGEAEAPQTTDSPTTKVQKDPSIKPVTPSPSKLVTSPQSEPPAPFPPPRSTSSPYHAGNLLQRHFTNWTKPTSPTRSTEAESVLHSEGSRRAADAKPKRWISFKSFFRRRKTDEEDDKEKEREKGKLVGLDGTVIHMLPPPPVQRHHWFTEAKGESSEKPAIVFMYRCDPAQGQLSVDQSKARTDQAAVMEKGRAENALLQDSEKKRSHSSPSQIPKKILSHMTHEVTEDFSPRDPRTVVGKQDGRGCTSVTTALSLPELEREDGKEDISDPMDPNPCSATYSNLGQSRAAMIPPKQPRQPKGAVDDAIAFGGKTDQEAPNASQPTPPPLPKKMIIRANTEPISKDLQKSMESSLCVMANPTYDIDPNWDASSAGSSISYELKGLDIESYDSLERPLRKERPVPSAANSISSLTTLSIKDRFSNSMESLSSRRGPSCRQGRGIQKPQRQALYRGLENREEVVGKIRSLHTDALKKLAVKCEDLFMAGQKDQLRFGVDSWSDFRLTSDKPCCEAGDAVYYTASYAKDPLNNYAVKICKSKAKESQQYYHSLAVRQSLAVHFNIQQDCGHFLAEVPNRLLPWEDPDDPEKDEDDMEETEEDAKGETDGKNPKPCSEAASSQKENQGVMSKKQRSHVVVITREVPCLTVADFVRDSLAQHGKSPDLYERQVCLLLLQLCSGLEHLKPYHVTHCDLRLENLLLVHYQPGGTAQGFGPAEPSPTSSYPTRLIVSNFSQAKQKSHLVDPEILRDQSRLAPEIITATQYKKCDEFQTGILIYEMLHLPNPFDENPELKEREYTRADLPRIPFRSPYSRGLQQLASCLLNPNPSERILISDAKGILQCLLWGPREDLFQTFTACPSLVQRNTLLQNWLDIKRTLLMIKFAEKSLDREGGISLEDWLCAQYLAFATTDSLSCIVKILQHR

B1: LZTR1-FLAG (other, human, UniProt Q8N653 1-840, looked up)
chain: MAGPGSTGGQIGAAALAGGARSKVAPSVDFDHSCSDSVEYLTLNFGPFETVHRWRRLPPCDEFVGARRSKHTVVAYKDAIYVFGGDNGKTMLNDLLRFDVKDCSWCRAFTTGTPPAPRYHHSAVVYGSSMFVFGGYTGDIYSNSNLKNKNDLFEYKFATGQWTEWKIEGRLPVARSAHGATVYSDKLWIFAGYDGNARLNDMWTIGLQDRELTCWEEVAQSGEIPPSCCNFPVAVCRDKMFVFSGQSGAKITNNLFQFEFKDKTWTRIPTEHLLRGSPPPPQRRYGHTMVAFDRHLYVFGGAADNTLPNELHCYDVDFQTWEVVQPSSDSEVGGAEVPERACASEEVPTLTYEERVGFKKSRDVFGLDFGTTSAKQPTQPASELPSGRLFHAAAVISDAMYIFGGTVDNNIRSGEMYRFQFSCYPKCTLHEDYGRLWESRQFCDVEFVLGEKEECVQGHVAIVTARSRWLRRKITQARERLAQKLEQEAAPVPREAPGVAAGGARPPLLHVAIREAEARPFEVLMQFLYTDKIKYPRKGHVEDVLLIMDVYKLALSFQLCRLEQLCRQYIEASVDLQNVLVVCESAARLQLSQLKEHCLNFVVKESHFNQVIMMKEFERLSSPLIVEIVRRKQQPPPRTPLDQPVDIGTSLIQDMKAYLEGAGAEFCDITLLLDGHPRPAHKAILAARSSYFEAMFRSFMPEDGQVNISIGEMVPSRQAFESMLRYIYYGEVNMPPEDSLYLFAAPYYYGFYNNRLQAYCKQNLEMNVTVQNVLQILEAADKTQALDMKRHCLHIIVHQFTKVSKLPTLRSLSQQLLLDIIDSLASHISDKQCAELGADI
notes: Expressed in HEK 293T, HeLa or U87 cells; used as cell lysate; also called LZTR1 wild type-FLAG; LZTR1 WT; not shown: FLAG tag at the C-terminus
binds: all assays above
